Test results reported in US20150037339A1.

molecular target: hBMP7 (human) (UniProt P18075); assay: SPR (Biacore 4000), captured on anti-human Fc, 200 nM ligand injected, 37 C
Sequence (P18075 293-431 limits assumed): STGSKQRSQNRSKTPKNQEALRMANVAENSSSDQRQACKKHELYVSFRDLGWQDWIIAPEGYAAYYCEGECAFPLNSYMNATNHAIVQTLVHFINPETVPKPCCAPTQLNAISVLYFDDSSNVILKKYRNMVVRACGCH

binding response (resonance units) for 200 nM ligand [RU]	Binder
9.2	H4H10429P (antibody, human IgG4, V domains shown) VH: QVQLVESGGGVVQPGRSLRLSCVASGFTVSSYGIHWVRQAPGKGLEWVSVIWYDGRNKDYADSVKGRFTISRDNSKNTVYLEMKGLRAEDTALYYCARDKTGDFDSWGQGTLVTVSS VL: DIQMTQSPSSLSASVGDRVTITCRASQNINSFLSWYQQKPGKAPKFLIYDASSIQSGAPSRFSGSGSGTDFTLTISSLQPEDFATYYCQQSYSSPFTFGQGTKLEIK

molecular target: BMP receptor types I and II (on W-20-17/BRE-luc cells); assay: cell-based or functional assay

EC50 [M]; activation of W-20-17/BRE-luc luciferase reporter cells [M]	Binder
2.6e-10	BMP9 (ligand, human, UniProt Q9UK05 320-429, looked up) SAGAGSHCQKTSLRVNFEDIGWDSWIIAPKEYEAYECKGGCFFPLADDVTPTKHAIVQTLVHLKFPTKVGKACCVPTKLSPISVLYKDDMGVPTLKYHYEGMSVAECGCR
2.5e-09	BMP10 (ligand, human, UniProt O95393 317-424, looked up) NAKGNYCKRTPLYIDFKEIGWDSWIIAPPGYEAYECRGVCNYPLAEHLTPTKHAIIQALVHLKNSQKASKACCVPTKLEPISILYLDKGVVTYKFKYEGMAVSECGCR
3.4e-11	BMP2 (ligand, human, UniProt P12643 283-396, looked up) QAKHKQRKRLKSSCKRHPLYVDFSDVGWNDWIVAPPGYHAFYCHGECPFPLADHLNSTNHAIVQTLVNSVNSKIPKACCVPTELSAISMLYLDENEKVVLKNYQDMVVEGCGCR
6.3e-11	BMP4 (ligand, human, UniProt P12644 293-408, looked up) SPKHHSQRARKKNKNCRRHSLYVDFSDVGWNDWIVAPPGYQAFYCHGDCPFPLADHLNSTNHAIVQTLVNSVNSSIPKACCVPTELSAISMLYLDEYDKVVLKNYQEMVVEGCGCR

molecular target: activin Type II receptors; assay: cell-based or functional assay

EC50, activation of A204/CAGAx12-Luc cells (Smad 2/3-luciferase reporter) [nM]	Binder
0.047	Activin B, P09529 293-407 (ligand) GLECDGRTNLCCRQQFFIDFRLIGWNDWIIAPTSYYGNYCEGSCPAYLAGVPGSASSFHTAVVNQYRMRGLNPGTVNSCCIPTKLSTMSMLYFDDEYNIVKRDVPNMIVEECGCA
0.099	Activin A, P08476 311-426 (ligand) GLECDGKVNICCKKQFFVSFKDIGWNDWIIAPSGYHANYCEGECPSHIAGTSGSSLSFHSTVINHYRMRGHSPFANLKSCCVPTKLRPMSMLYYDDGQNIIKKDIQNMIVEECGCS
4.4	Activin AC, P55103 237-352 (ligand, human) chain 1: GLECDGKVNICCKKQFFVSFKDIGWNDWIIAPSGYHANYCEGECPSHIAGTSGSSLSFHSTVINHYRMRGHSPFANLKSCCVPTKLRPMSMLYYDDGQNIIKKDIQNMIVEECGCS chain 2: GIDCQGGSRMCCRQEFFVDFREIGWHDWIIQPEGYAMNFCIGQCPLHIAGMPGIAASFHTAVLNLLKANTAAGTTGGGSCCVPTARRPLSLLYYDRDSNIVKTDIPDMVVEACGCS
0.019	Activin AB, P08476 311-426; P09529 293-407 (ligand) chain 1: GLECDGKVNICCKKQFFVSFKDIGWNDWIIAPSGYHANYCEGECPSHIAGTSGSSLSFHSTVINHYRMRGHSPFANLKSCCVPTKLRPMSMLYYDDGQNIIKKDIQNMIVEECGCS chain 2: GLECDGRTNLCCRQQFFIDFRLIGWNDWIIAPTSYYGNYCEGSCPAYLAGVPGSASSFHTAVVNQYRMRGLNPGTVNSCCIPTKLSTMSMLYFDDEYNIVKRDVPNMIVEECGCA
